Data taken from patent US6680176B2, “Identification of candidate ligands which modulate antigen presenting cells” (The United States of America, as represented by the …, priority 1999, dated 2004).

Tested on: CD8 killer T cells
Assay: Replacement of T help by soluble factors in CD4 depleted anti-H-Y killer cultures (JAM Test)
Format: cell-based, mouse
Settings: CD4 depleted primed B6 female spleen cells, male stimulators
Source text: Two weeks to 1 year after in vivo priming, spleens were removed from the responders and depleted for CD4 T cells using the Midi MACs system (Miltenyi Biotec, Germany) with MACS magnetic beads conjugated to the anti-mouse CD4 monoclonal antibody, GK1.5. By FACS analysis with the non-competing anti-CD4 antibody RM4-4 (Pharmingen, San Diego, Calif.), the depleted populations routinely contained less than 0.2% CD4 cells.
Two weeks or later after the last in vivo immunization, 4×10^6 spleen cells were restimulated in 2 ml cultures with 2×10^6 irradiated B6 male spleen cells or 1.5×10^5 of the various populations of dendritic cells, with or with out an exogenous source of mouse IL-2, (10% Rat Con A supernatant, from which the ConA has been removed, Collaborative Biomedical Products, Bedford Mass.). Six days later the cultures were tested for their ability to kill male and female targets using the JAM Test. (55).

B1: IL-12: cytokine IL-12 added to the cultures (protein, UniProt P43431 23-215; P43432 23-335, looked up)
Interleukin-12 subunit alpha: RVIPVSGPARCLSQSRNLLKTTDDMVKTAREKLKHYSCTAEDIDHEDITRDQTSTLKTCLPLELHKNESCLATRETSSTTRGSCLPPQKTSLMMTLCLGSIYEDLKMYQTEFQAINAALQNHNHQQIILDKGMLVAIDELMQSLNHNGETLRQKPPVGEADPYRVKMKLCILLHAFSTRVVTINRVMGYLSSA
Interleukin-12 subunit beta: MWELEKDVYVVEVDWTPDAPGETVNLTCDTPEEDDITWTSDQRHGVIGSGKTLTITVKEFLDAGQYTCHKGGETLSHSHLLLHKKENGIWSTEILKNFKNKTFLKCEAPNYSGRFTCSWLVQRNMDLKFNIKSSSSSPDSRAVTCGMASLSAEKVTLDQRDYEKYSVSCQEDVTCPTAEETLPIELALEARQQNKYENYSTSFFIRDIIKPDPPKNLQMKPLKNSQVEVSWEYPDSWSTPHSYFSLKFFVRIQRKKEKMKETEEGCNQKGAFLVEKTSTEVQCKGGNVCVQAQDRYYNSSCSKWACVPCRVRS
restoration of killer response in the absence of CD4 helpers by addition to the culture: did not replace the activity of helpers
